Results as given in patent US20120058906A1 (published 2012).
One block for each binder: values may come before it.

Experiments:
[1] = target: T1, rHuman EGF R/Fc Chimera, CF (R&D Systems Cat#344-ER) (human, UniProt P00533 25-645); assay: MSD ECL multi-spot plate, antigen immobilized; Fab 1000 nM; blank spot 630;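 note: blank spot per well as comparator with Hit at signal to blank ratio of 4 or more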
T1 construct: Purchased Fc chimera; not shown: Fc portion of the purchased chimera

[2] = target: T2, Recombinant Human DLL4 (R&D Systems Cat#1506-D4/CF) (human, UniProt Q9NR61 27-524); assay: as above
T2 construct: Purchased recombinant protein; also called delta-like protein 4

[3] = target: T3, rHuman HGF R/c-MET/Fc Chimera, CF (R&D Systems Cat#358-MT/CF) (human, UniProt P08581 25-932); assay: as above
T3 construct: Purchased Fc chimera; also called HGF R/Fc; not shown: Fc portion of the purchased chimera

[4] = target: T4, rHuman CD44/Fc Chimera, CF (R&D Systems Cat#3660-CD) (human, UniProt P16070 21-220); assay: as above
T4 construct: Purchased Fc chimera; not shown: Fc portion of the purchased chimera

[5] = target: T5, rHuman Erythropoietin R/Fc Chimera, CF (R&D Systems Cat#963-ER) (human, UniProt P19235 25-250); assay: as above
T5 construct: Purchased Fc chimera; also called EPO R/Fc; Epo R; not shown: Fc portion of the purchased chimera
T5 sequence: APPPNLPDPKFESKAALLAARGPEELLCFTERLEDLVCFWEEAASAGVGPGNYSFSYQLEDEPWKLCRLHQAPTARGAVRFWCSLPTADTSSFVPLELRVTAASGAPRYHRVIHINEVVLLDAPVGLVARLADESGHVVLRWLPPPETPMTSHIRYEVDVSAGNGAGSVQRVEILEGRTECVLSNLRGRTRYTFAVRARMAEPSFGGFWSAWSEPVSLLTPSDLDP

[6] = target: T6, rHuman ErbB2/Fc Chimera, CF (R&D Systems Cat#1129-ER) (human, UniProt P04626 23-652); assay: as above
T6 construct: Purchased Fc chimera; also called HER2/neu; not shown: Fc portion of the purchased chimera

[7] = target: T7, rHuman IGF-1 sR, CF (R&D Systems Cat#391-GR) (human, UniProt P08069 31-932); assay: ECL (MSD Multi-Spot) binding, antigen spotted on plate; Fab 500 nM;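 note: blank spot per well as comparator with Hit at signal to blank ratio of 4 or more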
T7 construct: Bought soluble receptor; also called insulin-like growth factor-1 soluble receptor; IGF-R1

[8] = target: T8, rHuman Notch-1/Fc Chimera, CF (R&D Systems Cat#3647-TK) (human, UniProt P46531 19-526); assay: as above
T8 construct: Bought Fc chimera; Fc part of the bought chimera not given

[9] = target: T9, rHuman EGF R/Fc Chimera, CF (R&D Systems Cat#344-ER) (human, UniProt P00533 25-645); assay: as above
T9 construct: Bought Fc chimera; also called epidermal growth factor receptor; Fc part of the bought chimera not given

[10] = target: T10, rHuman P-Cadherin/Fc Chimera, CF (R&D Systems Cat#861-PC) (human, UniProt P22223 108-654); assay: as above
T10 construct: Bought Fc chimera; Fc part of the bought chimera not given

[11] = target: T11, rHuman HGF R/c-MET/Fc Chimera, CF (R&D Systems Cat#358-MT/CF) (human, UniProt P08581 25-932); assay: ECL (MSD multi-spot), antigen on plate, Fab 0.5 nM
T11 construct: Bought Fc chimera; also called HGF R/Fc; not shown: Fc of the bought chimera

[12] = target: T12, rHuman IGF-1 sR (insulin-like growth factor-1 soluble receptor), CF (R&D Systems Cat#391-GR) (human, UniProt P08069 31-932); assay: ECL (MSD multi-spot), antigen on plate, Fab 0.5 nM
T12 construct: Bought soluble receptor; also called IGF-R1

[13] = target: T13, rHuman ErbB2/Fc Chimera, CF (R&D Systems Cat#1129-ER) (human, UniProt P04626 23-652); assay: ECL (MSD multi-spot), antigen on plate, Fab 0.5 nM
T13 construct: Bought Fc chimera; also called HER2/neu; not shown: Fc of the bought chimera

[14] = target: T14, rHuman EGF R/Fc Chimera, CF (R&D Systems Cat#344-ER) (human, UniProt P00533 25-645); assay: ECL (MSD multi-spot), antigen on plate, Fab 0.5 nM
T14 construct: Bought Fc chimera; also called ErbB-1; not shown: Fc of the bought chimera

[15] = target: T15, rHuman CD44/Fc Chimera, CF (R&D Systems Cat#3660-CD) (human, UniProt P16070 21-220); assay: ECL (MSD multi-spot), antigen on plate, Fab 0.5 nM
T15 construct: Bought Fc chimera; not shown: Fc of the bought chimera

[16] = target: T16, rHuman P-Cadherin/Fc Chimera, CF (R&D Systems Cat#861-PC) (human, UniProt P22223 108-654); assay: ECL (MSD multi-spot), antigen on plate, Fab 0.5 nM
T16 construct: Bought Fc chimera; also called CDH3; not shown: Fc of the bought chimera

[17] = target: T17, rHuman Notch-1/Fc Chimera, CF (R&D Systems Cat#3647-TK) (human, UniProt P46531 19-526); assay: ECL (MSD multi-spot), antigen on plate, Fab 0.5 nM
T17 construct: Bought Fc chimera; not shown: Fc of the bought chimera

[18] = target: T18, rHuman Erythropoietin R/Fc Chimera, CF (R&D Systems Cat#963-ER) (human, UniProt P19235 25-250); assay: ECL (MSD multi-spot), antigen on plate, Fab 0.5 nM
T18 construct: Bought Fc chimera; also called EPO R/Fc; Epo R; not shown: Fc of the bought chimera
T18 sequence: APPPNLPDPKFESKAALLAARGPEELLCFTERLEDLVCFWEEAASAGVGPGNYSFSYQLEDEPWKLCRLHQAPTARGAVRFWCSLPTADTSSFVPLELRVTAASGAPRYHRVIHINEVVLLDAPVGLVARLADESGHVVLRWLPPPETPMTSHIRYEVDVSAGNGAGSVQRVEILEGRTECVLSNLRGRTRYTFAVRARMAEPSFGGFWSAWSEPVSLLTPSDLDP

[19] = target: T19, Recombinant Human DLL4 (R&D Systems Cat#1506-D4/CF) (human, UniProt Q9NR61 27-524); assay: ECL (MSD multi-spot), antigen on plate, Fab 0.5 nM
T19 construct: Bought recombinant protein; also called delta-like protein 4

ECL signal [1]: 1030 ECL signal
ECL signal [2]: 29600 ECL signal
ECL signal [3]: 1200 ECL signal
ECL signal [4]: 1020 ECL signal
ECL signal [5]: 1120 ECL signal
ECL signal [6]: 1250 ECL signal
B1: Fab VH5-51_IGHD5-18*01>3_IGHJ4*01_G100K & V3-4_IGLJ1*01 (Fab, V domains shown)
VH: EVQLVQSGAEVKKPGESLKISCKGSGYSFTSYWIGWVRQMPGKGLEWMGIIYPGDSDTRYSPSFQGQVTISADKSISTAYLQWSSLKASDTAMYYCARRKYSYGYDYFDYWGQGTLVTVSS
VL: QTVVTQEPSFSVSPGGTVTLTCGLSSGSVSTSYYPSWYQQTPGQAPRTLIYSTNTRSSGVPDRFSGSILGNKAALTITGAQADDESDYYCVLYMGSGISYVFGTGTKVTVL
notes: It was expressed as a Fab: CH1 with tags from Plasmid A and lambda CL from Plasmid E; also called Fab No. 22

ECL signal [7]: 592
ECL signal [8]: 644
ECL signal [9]: 898
ECL signal [10]: 939
B2: Fab VH1-46_IGHD6-6*01_IGHJ1*01_S102A_S103P_S104F_H111Y & L6_IGKJ1*01 (Fab, V domains shown)
VH: QVQLVQSGAEVKKPGASVKVSCKASGYTFTSYYMHWVRQAPGQGLEWMGIINPSGGSTSYAQKFQGRVTMTRDTSTSTVYMELSSLRSEDTAVYYCAREEYAPFSAEYFQYWGQGTLVTVSS
VL: not shown
notes: Fab made in E. coli; The heavy chain also carries the CH1 with Flag and His tags of Plasmid A, and the light chain the kappa constant region of Plasmid C

ECL signal [11]: 1690 ECL signal
ECL signal [12]: 1660 ECL signal
ECL signal [13]: 1720 ECL signal
ECL signal [14]: 1750 ECL signal
ECL signal [15]: 1560 ECL signal
ECL signal [16]: 2630 ECL signal
ECL signal [17]: 1760 ECL signal
ECL signal [18]: 1840 ECL signal
ECL signal [19]: 5150 ECL signal
B3: Fab VH1-46_IGHD6-6*01_IGHJ1*01_S102A_S103P_S104Y_H111Y & L6_IGKJ1*01 (Fab, V domains shown)
VH: QVQLVQSGAEVKKPGASVKVSCKASGYTFTSYYMHWVRQAPGQGLEWMGIINPSGGSTSYAQKFQGRVTMTRDTSTSTVYMELSSLRSEDTAVYYCAREEYAPYSAEYFQYWGQGTLVTVSS
VL: not shown
notes: Fab made in E. coli; The heavy chain also carries CH1 with Flag and His tags from Plasmid A, and the light chain carries kappa CL from Plasmid C
